Laboratory results from patent US11814435B2, “Therapeutic antibodies and their uses” (PFIZER INC., priority 2015, dated 2023).
Residue numbers refer to the chain shown, from its start.

T1: hBCMA (human BCMA) (Homo sapiens, UniProt Q02223)
T1 sequence (Q02223 1-184): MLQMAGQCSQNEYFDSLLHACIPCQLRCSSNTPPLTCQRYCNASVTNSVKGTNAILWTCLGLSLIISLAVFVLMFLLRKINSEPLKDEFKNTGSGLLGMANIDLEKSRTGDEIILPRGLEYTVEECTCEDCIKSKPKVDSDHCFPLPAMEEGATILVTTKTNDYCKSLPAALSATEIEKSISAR

B1: L3.PY/H3.AE: anti-BCMA antibody (antibody, V domains shown)
VH: EVQLLESGGGLVQPGGSLRLSCAASGFTFGSYAMTWVRQAPGKGLEWVSAISGSGGNTFYADSVKGRFTISRDNSKNTLYLQMNSLRAEDTAVYYCARVSPIAAEMDYWGQGTLVTVSS
VL: EIVLTQSPGTLSLSPGERATLSCRASQSVSSSYLAWYQQKPGQAPRLLIYGASSRATGIPDRFSGSGSGTDFTLTISRLEPEDFAVYYCQHYPYPPSFTFGQGTKVEIK
B2: L3.PY/L1.PS/H3.YA: anti-BCMA antibody (antibody, V domains shown)
VH: B1 VH with A103Y, E105G
VL: B1 VL with L34P, A35S
B3: L3.PY/L1.PS/H2.DY: anti-BCMA antibody (antibody, V domains shown)
VH: B1 VH with S52D, G53Y, A104S, E105G
VL: B1 VL with L34P, A35S
B4: L3.PY/L1.PS/H2.LT: anti-BCMA antibody (antibody, V domains shown)
VH: B1 VH with G53L, S54T, A104S, E105G
VL: B1 VL with L34P, A35S
B5: L3.PY/L1.PS/H2.HA: anti-BCMA antibody (antibody, V domains shown)
VH: B1 VH with G53H, S54A, A104S, E105G
VL: B1 VL with L34P, A35S
B6: L3.PY/L1.PS/H2.YQ: anti-BCMA antibody (antibody, V domains shown)
VH: B1 VH with G53Y, S54Q, A104S, E105G
VL: B1 VL with L34P, A35S
B7: L3.PY/L1.PS/H3.AE: anti-BCMA antibody (antibody, V domains shown)
VH: B1 VH
VL: B1 VL with L34P, A35S
B8: L3.PY/L1.PS/H2.QR: anti-BCMA antibody (antibody, V domains shown)
VH: B1 VH with S63Q, V64R, A104S, E105G
VL: B1 VL with L34P, A35S
B9: L3.PY/L1.PS/H2.QL: anti-BCMA antibody (antibody, V domains shown)
VH: B1 VH with S63Q, V64L, A104S, E105G
VL: B1 VL with L34P, A35S

Each molecule was assayed against T1, hBCMA (human BCMA) (assay: Kinetics and affinity of hBCMA/human IgG interactions by SPR (Bio-Rad Proteon XPR36)). Settings: huBCMA, 37° C.
Format: binding
Method: All experiments were performed on a Bio-Rad Proteon XPR36 surface Plasmon resonance biosensor (Bio-Rad, Hercules, Calif.). An array of anti-BCMA antibodies was prepared using an amine-coupling method on a Bio-Rad GLC Sensor Chip similar to that described in Abdiche, et al., Anal. Biochem. 411, 139-151 (2011). The analysis temperature for the immobilization was 25° C. and the running buffer was HBS-T+(10 mM HEPES, 150 mM NaCl, 0.05% Tween-20, pH 7.4). Channels were activated in the analyte (horizontal) direction by injecting a mixture of 1 mM ECD and 0.25 mM NHS for 3 minutes at a flow rate of 30 μL/min. IgGs were immobilized on the activated spots by injecting them in the ligand (vertical) direction at 20 μg/mL in 10 mM Acetate pH 4.5 buffer for 1.5 minutes at […]. The activated surfaces were blocked by injecting 1M ethanolamine, pH 8.5 in the analyte direction for 3 minutes at 30 μL/min.
The analysis temperature for the hBCMA binding analysis was 37° C. or 25° C. in a running buffer of HBS-T+, supplemented with 1 mg/mL BSA. A kinetic titration method was employed for the interaction analysis as described in Abdiche, et al. The hBCMA (human BCMA) analyte was injected in the analyte direction using a series of injections from low to high concentration. The concentrations used were 0.08 nM, 0.4 nM, 2 nM, 10 nM and 50 nM (a 5-membered series, with a 5-fold dilution factor and top concentration of 50 nM). The association time for a given analyte dilution was two minutes. Immediately after the 50 nM hBCMA injection, dissociation was monitored for 2 hours. Prior to the hBCMA analyte injections, buffer was injected 5 times using the same association and dissociation times at the hBCMA analyte cycles to prepare a buffer blank sensorgram for double-referencing purposes (double referencing as described in Myszka, J. Mol. Recognit. 12, 279-284 (1999).
The sensorgrams were double-referenced and fit to a 1:1 Langmuir with mass transport kinetic titration model in BIAevaluation Software version 4.1.1 (GE Lifesciences, Piscataway, N.J.). The sensorgrams and fits are shown in FIG. 1, and the kinetics and affinity parameters for various anti-BCMA antibodies of the present invention are shown in Tables 6A-6C.
With B1 the “ka (1/Ms) huBCMA @ 37° C.” value was 3.29e+06 M⁻¹ s⁻¹ and the “kd (1/s) huBCMA @37° C.” value was 0.00139 s⁻¹.
For B2, the “ka (1/Ms) huBCMA @ 37° C.” value was 3.07e+06 M⁻¹ s⁻¹ and the “kd (1/s) huBCMA @37° C.” value was 0.00905 s⁻¹.
B3 was tested, and the “ka (1/Ms) huBCMA @ 37° C.” value was 3.22e+06 M⁻¹ s⁻¹ and the “kd (1/s) huBCMA @37° C.” value was 0.00361 s⁻¹.
B4 was tested, and the “ka (1/Ms) huBCMA @ 37° C.” value was 3.4e+06 M⁻¹ s⁻¹ and the “kd (1/s) huBCMA @37° C.” value was 0.00465 s⁻¹.
With B5 the “ka (1/Ms) huBCMA @ 37° C.” value was 3.3e+06 M⁻¹ s⁻¹ and the “kd (1/s) huBCMA @37° C.” value was 0.0106 s⁻¹.
With B6 the “ka (1/Ms) huBCMA @ 37° C.” value was 3.35e+06 M⁻¹ s⁻¹ and the “kd (1/s) huBCMA @37° C.” value was 0.0043 s⁻¹.
In the case of B7, the “ka (1/Ms) huBCMA @ 37° C.” value is reported as 3.14e+06 M⁻¹ s⁻¹ and the “kd (1/s) huBCMA @37° C.” value is reported as 0.00146 s⁻¹.
For B8, the “ka (1/Ms) huBCMA @ 37° C.” value was 3.97e+06 M⁻¹ s⁻¹ and the “kd (1/s) huBCMA @37° C.” value was 0.103 s⁻¹.
B9 was tested, and the “ka (1/Ms) huBCMA @ 37° C.” value was 1.52e+07 M⁻¹ s⁻¹ and the “kd (1/s) huBCMA @37° C.” value was 0.314 s⁻¹.

The molecules below were run on cyBCMA (assay: Kinetics and affinity of cyBCMA/human IgG interactions by SPR (Bio-Rad Proteon XPR36)). Settings: 37° C.
Format: binding, cynomolgus
B1 was tested, and the “ka (1/Ms) cyBCMA @ 37° C.” value was 2.82e+06 M⁻¹ s⁻¹ and the “kd (1/s) cyBCMA @37° C.” value was 0.00504 s⁻¹.
With B2 the “ka (1/Ms) cyBCMA @ 37° C.” value was 1.77e+06 M⁻¹ s⁻¹ and the “kd (1/s) cyBCMA @37° C.” value was 0.00998 s⁻¹.
With B3 the “ka (1/Ms) cyBCMA @ 37° C.” value was 1.9e+06 M⁻¹ s⁻¹ and the “kd (1/s) cyBCMA @37° C.” value was 0.00378 s⁻¹.
In the case of B4, the “ka (1/Ms) cyBCMA @ 37° C.” value is reported as 2.17e+06 M⁻¹ s⁻¹ and the “kd (1/s) cyBCMA @37° C.” value is reported as 0.00411 s⁻¹.
In the case of B5, the “ka (1/Ms) cyBCMA @ 37° C.” value is reported as 1.45e+06 M⁻¹ s⁻¹ and the “kd (1/s) cyBCMA @37° C.” value is reported as 0.00269 s⁻¹.
B6 was tested, and the “ka (1/Ms) cyBCMA @ 37° C.” value was 2e+06 M⁻¹ s⁻¹ and the “kd (1/s) cyBCMA @37° C.” value was 0.00374 s⁻¹.
In the case of B7, the “ka (1/Ms) cyBCMA @ 37° C.” value is reported as 2.46e+06 M⁻¹ s⁻¹ and the “kd (1/s) cyBCMA @37° C.” value is reported as 0.00413 s⁻¹.
In the case of B8, the “ka (1/Ms) cyBCMA @ 37° C.” value is reported as 525000 M⁻¹ s⁻¹ and the “kd (1/s) cyBCMA @37° C.” value is reported as 0.00067 s⁻¹.
With B9 the “ka (1/Ms) cyBCMA @ 37° C.” value was 657000 M⁻¹ s⁻¹ and the “kd (1/s) cyBCMA @37° C.” value was 0.000636 s⁻¹.
